In US7625734B2, “Glutamine:fructose-6-phosphate amidotransferase (GFAT) comprising an internal purification marker and use thereof for the screening of compounds” (Centre National de la Recherche Scientifique (CNRS), priority 2003, dated 2009):
Where two headings read alike, the source gives them in different places.

What was measured:
GFAT activity [1] = biological target: T1, GFAT activity (Homo sapiens, UniProt Q06210, INS317HHHHHH); assay: Morgan-Elson assay of GFAT1-His6 enzyme activity; format: biochemical; conditions: 30 minutes at 37° C.; D-glucosamine standard curve
T1 construct: made in house; host or cells: Sf9 insect cells (recombinant baculovirus)
Protocol: In this case the enzyme activity is monitored by a colorimetric test the principle of which is the following: the D-glucosamine-6P released by the enzyme is N-acetylated by acetic anhydride in alkaline medium (Ghosh et al., Method. Enzymol. (1962) 5:414), then the solution is treated with Ehrlich's reagent (para-dimethyl-amino-benzaldehyde, PDAB) in concentrated acid medium; the pink compound formed absorbs at 585 nm.
The enzymatic reaction takes place over 30 minutes at 37° C. in the presence of: • 0.2 ml of 100 mM fructose-6P • 0.25 ml of 60 mM L-Glutamine • 0.25 ml of 150 mM KPO4 buffer, pH 7 • 0.1 ml of 25 mM EDTA (ethylene diamine tetra-acetate), pH 7 • up to 200 μl of sample (to be completed with H2O if necessary)
The reaction is stopped by immersion for 4 minutes in a water bath at 100° C. then centrifuged. […]
The activity of the GFAT was determined by comparison with a standard curve established using D-glucosamine as standard in a concentration range of 0 to 200 nmoles. The specific activity of the GFAT1-His6 obtained was thus measured at 1.7 U/mg. […]

GFAT activity [2] = biological target: T1, GFAT activity; assay: APAD assay (spectrophotometric assay coupled with glutamate dehydrogenase); format: biochemical
Protocol: The kinetic parameters of GFAT1-His6 have been characterized vis-à-vis glutamine (Km^Gln=0.2 mM) and fructose-6P (F6P) (Km^F6P=0.006 mM) by a spectrophotometric assay coupled with glutamate dehydrogenase according to the APAD test. This is in accordance with the values cited in the prior art (Km^Gln=0.26 mM and Km^F6P=0.007 mM for Broschat et al., J. Biol. Chem. (2002) 277:14764).
This is an ultraviolet spectrophotometric assay of the GFAT activity. It is based on the continuous determination of the quantity of L-glutamate formed using GFAT and an analogue of NAD (nicotinamide adenine dinucleotide), APAD (3-acetylpyridine adenine dinucleotide), according to the following reaction (catalyzed by glutamate dehydrogenase (GDH)):
The measurement is carried out at 365 nm, at 37° C. Under these conditions an absorbance unit corresponds to 0.11 μmole of APADH formed.
The test comprises: • 100 μl 3 mM APAD (2 mg/ml) • 25 μl 2M KCl • 100 μl of 1 M KPO4 buffer, pH 7.2 • 100 μl of 100 mM Fructose-6P (30.41 mg/ml) • 100 μl of 60 mM purified L-Glutamine (8.77 mg/ml) • H2O qsf 1 ml (taking into account the volumes to be added hereafter) • 50 μl GDH • sample to be assayed: 0.5 μg

GFAT activity [3] = conditions: value obtained by Broschat et al., J. Biol. Chem. (2002) 277:14764; cited from earlier work

T1 sequence (Q06210 with tags, fused parts or gaps isoform Q06210-2 INS299HHHHHH): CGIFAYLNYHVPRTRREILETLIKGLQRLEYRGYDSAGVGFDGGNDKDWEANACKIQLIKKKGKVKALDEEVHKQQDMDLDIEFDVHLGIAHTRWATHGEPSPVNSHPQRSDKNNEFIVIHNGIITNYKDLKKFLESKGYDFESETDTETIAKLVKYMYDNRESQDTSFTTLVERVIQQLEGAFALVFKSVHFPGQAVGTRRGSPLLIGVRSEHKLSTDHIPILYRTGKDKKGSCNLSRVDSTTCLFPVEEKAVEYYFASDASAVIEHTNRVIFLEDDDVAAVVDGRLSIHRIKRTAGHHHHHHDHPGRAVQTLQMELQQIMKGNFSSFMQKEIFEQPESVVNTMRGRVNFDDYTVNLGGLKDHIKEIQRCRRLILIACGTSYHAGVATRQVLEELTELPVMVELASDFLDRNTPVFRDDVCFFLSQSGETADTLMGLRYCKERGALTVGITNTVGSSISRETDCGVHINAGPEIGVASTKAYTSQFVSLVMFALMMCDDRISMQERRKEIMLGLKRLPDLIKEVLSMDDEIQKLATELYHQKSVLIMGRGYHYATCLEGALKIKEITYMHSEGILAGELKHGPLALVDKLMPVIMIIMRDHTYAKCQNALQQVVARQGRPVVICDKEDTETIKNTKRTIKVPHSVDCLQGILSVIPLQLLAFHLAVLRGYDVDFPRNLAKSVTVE

B1: GFAT1-His6: human GFAT1 (SEQ ID NO: 2) in which a hexa-histidine purification tag is inserted between amino acids 299 and 300 (protein, UniProt Q06210 2-699, looked up)
Glutamine--fructose-6-phosphat …: CGIFAYLNYHVPRTRREILETLIKGLQRLEYRGYDSAGVGFDGGNDKDWEANACKIQLIKKKGKVKALDEEVHKQQDMDLDIEFDVHLGIAHTRWATHGEPSPVNSHPQRSDKNNEFIVIHNGIITNYKDLKKFLESKGYDFESETDTETIAKLVKYMYDNRESQDTSFTTLVERVIQQLEGAFALVFKSVHFPGQAVGTRRGSPLLIGVRSEHKLSTDHIPILYRTARTQIGSKFTRWGSQGERGKDKKGSCNLSRVDSTTCLFPVEEKAVEYYFASDASAVIEHTNRVIFLEDDDVAAVVDGRLSIHRIKRTAGDHPGRAVQTLQMELQQIMKGNFSSFMQKEIFEQPESVVNTMRGRVNFDDYTVNLGGLKDHIKEIQRCRRLILIACGTSYHAGVATRQVLEELTELPVMVELASDFLDRNTPVFRDDVCFFLSQSGETADTLMGLRYCKERGALTVGITNTVGSSISRETDCGVHINAGPEIGVASTKAYTSQFVSLVMFALMMCDDRISMQERRKEIMLGLKRLPDLIKEVLSMDDEIQKLATELYHQKSVLIMGRGYHYATCLEGALKIKEITYMHSEGILAGELKHGPLALVDKLMPVIMIIMRDHTYAKCQNALQQVVARQGRPVVICDKEDTETIKNTKRTIKVPHSVDCLQGILSVIPLQLLAFHLAVLRGYDVDFPRNLAKSVTVE
modifications: internal His6 tag
specific activity (GFAT activity [1]): 1.7 U/mg
Km (GFAT activity [2]; vis-à-vis fructose-6P, read-out: Km F6P): 6 µM
Km (GFAT activity [2]; vis-à-vis glutamine, read-out: Km Gln): 200 µM

B2: recombinant human GFAT1: recombinant human GFAT1 purified by Broschat et al., J. Biol. Chem. (2002) 277:14764 (protein, UniProt Q06210 2-699, looked up)
Glutamine--fructose-6-phosphat …: B1 Glutamine--fructose-6-phosphat …
specific activity (GFAT activity [3]): 0.4 U/mg
